Test results: patent publication US20230340555A1, “PRODUCTION OF GLYCOSYLATED CANNABINOIDS” (WILLOW BIOSCIENCES, INC., priority 2020, published 2023)

B1: AtUGT71 D1: UDP-glycosyl transferase from Arabidopsis thaliana, amino acid sequence SEQ ID NO: 8 (protein, listed as Arabidopsis thaliana)
chain: MRNVELIFIPTPTVGHLVPFLEFARRLIEQDDRIRITILLMKLQGQSHLDTYVKSIASSQPFVRFIDVPELEEKPTLGSTQSVEAYVYDVIERNIPLVRNIVMDILTSLALDGVKVKGLVVDFFCLPMIDVAKDISLPFYVFLTTNSGFLAMMQYLADRHSRDTSVFVRNSEEMLSIPGFVNPVPANVLPSALFVEDGYDAYVKLAILFTKANGILVNSSFDIEPYSVNHFLQEQNYPSVYAVGPIFDLKAQPHPEQDLTRRDELMKWLDDQPEASVVFLCFGSMARLRGSLVKEIAHGLELCQYRFLWSLRKEEVTKDDLPEGFLDRVDGRGMICGWSPQVEILAHKAVGGFVSHCGWNSIVESLWFGVPIVTWPMYAEQQLNAFLMVKELKLAVELKLDYRVHSDEIVNANEIETAIRYVMDTDNNVVRKRVMDISQMIQRATKNGGSSFAAIEKFIYDVIGIKP
B2: SrUGT76G1: UDP-glycosyl transferase from Stevia rebaudiana, amino acid sequence SEQ ID NO: 20 (protein, listed as Stevia rebaudiana)
chain: MENKTETTVRRRRRIILFPVPFQGHINPILQLANVLYSKGFSITIFHTNFNKPKTSNYPHFTFRFILDNDPQDERISNLPTHGPLAGMRIPIINEHGADELRRELELLMLASEEDEEVSCLITDALWYFAQSVADSLNLRRLVLMTSSLFNFHAHVSLPQFDELGYLDPDDKTRLEEQASGFPMLKVKDIKSAYSNWQILKEILGKMIKQTRASSGVIWNSFKELEESELETVIREIPAPSFLIPLPKHLTASSSSLLDHDRTVFQWLDQQPPSSVLYVSFGSTSEVDEKDFLEIARGLVDSKQSFLWVVRPGFVKGSTWVEPLPDGFLGERGRIVKWVPQQEVLAHGAIGAFWTHSGWNSTLESVCEGVPMIFSDFGLDQPLNARYMSDVLKVGVYLENGWERGEIANAIRRVMVDEEGEYIRQNARVLKQKADVSLMKGGSSYESLESLVSYISSL
B3: At5g49690: UDP-glycosyl transferase from Arabidopsis thaliana, amino acid sequence SEQ ID NO: 18 (protein, listed as Arabidopsis thaliana)
chain: MVDKREEVMHVAMFPWLAMGHLLPFLRLSKLLAQKGHKISFISTPRNIERLPKLQSNLASSITFVSFPLPPISGLPPSSESSMDVPYNKQQSLKAAFDLLQPPLKEFLRRSSPDWIIYDYASHWLPSIAAELGISKAFFSLFNAATLCFMGPSSSLIEEIRSTPEDFTVVPPWVPFKSNIVFRYHEVTRYVEKTEEDVTGVSDSVRFGYSIDESDAVFVRSCPEFEPEWFGLLKDLYRKPVFPIGFLPPVIEDDDAVDTTWVRIKKWLDKQRLNSVVYVSLGTEASLRHEEVTELALGLEKSETPFFWVLRNEPKIPDGFKTRVKGRGMVHVGWVPQVKILSHESVGGFLTHCGWNSVVEGLGFGKVPIFFPVLNEQGLNTRLLHGKGLGVEVSRDERDGSFDSDSVADSIRLVMIDDAGEEIRAKAKVMKDLFGNMDENIRYVDELVRFMRSKGSSSSS
B4: AtUGT73C6: UDP-glycosyl transferase from Arabidopsis thaliana, amino acid sequence SEQ ID NO: 4 (protein, listed as Arabidopsis thaliana)
chain: MAFEKNNEPFPLHFVLFPFMAQGHMIPMVDIARLLAQRGVLITIVTTPHNAARFKNVLNRAIESGLPINLVQVKFPYQEAGLQEGQENMDLLTTMEQITSFFKAVNLLKEPVQNLIEEMSPRPSCLISDMCLSYTSEIAKKFKIPKILFHGMGCFCLLCVNVLRKNREILDNLKSDKEYFIVPYFPDRVEFTRPQVPVETYVPAGWKEILEDMVEADKTSYGVIVNSFQELEPAYAKDFKEARSGKAWTIGPVSLCNKVGVDKAERGNKSDIDQDECLEWLDSKEPGSVLYVCLGSICNLPLSQLLELGLGLEESQRPFIWVIRGWEKYKELVEWFSESGFEDRIQDRGLLIKGWSPQMLILSHPSVGGFLTHCGWNSTLEGITAGLPMLTWPLFADQFCNEKLVVQILKVGVSAEVKEVMKWGEEEKIGVLVDKEGVKKAVEELMGESDDAKERRRRAKELGESAHKAVEEGGSSHSNITFLLQDIMQLAQSNN

Legend:
[1] = cited from earlier work
[2] = test system: CN3 yeast strain host cells; assay: Detection of glycosylated cannabinoids and cannabinoid precursors in yeast cells expressing UDP-glycosyl transferase (HPLC-MS); type: cell-based; set-up: key to CBDA-glc / OLA-glc / CBGA-glc / CBGA-(glc)2 / CBD-glc / CBD-(glc)2 / OLA-(glc)2 / CBGA-glucuronic acid: (+) represents the lowest detected quantities; (++), (+++), and (++++) signify relative increasing intermediate detected levels; (++), (+++), and (++++) signify relative increasing intermediate detected levels; (++), (+++), and (++++) signify relative increasing intermediate detected levels; (+++++) represents the highest detected quantities; No detectable levels of a glycosylated cannabinoid compound or glycosylated cannabinoid precursor compound are indicated by “n.d.”; conditions: for CBD-glc / CBD-(glc)2: 0.5 g/L CBD; for production of glycosylated cannabinoids or cannabinoid precursor compounds: pellet or supernatant of recombinant yeast host cells transformed with the UGT
Summary of the method: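 CN3 yeast host cells carrying a heterologous UDP-glycosyl transferase gene were grown overnight in YPD, then diluted into YPG to OD600 = 0.2 and shaken at 600 RPM and 28° C. Cell pellets and supernatants were extracted for 1 hour in 80 % Acetonitrile/20 % Methanol, centrifuged at 12,000 RPM, filtered (0.22 µm), and checked for glycosylated cannabinoids and precursors by HPLC and negative-mode ESI QToF HPLC-MS.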

[3] = test system: bacterial strain BL21 (DE3); assay: CBDA depletion in BL21 (DE3) strains expressing UGTs (UHPLC-MS); type: cell-based; conditions: 0.1 mM CBDA, induced with 100 µM IPTG for 4h at 37° C. vs controls without induction
Excerpt: The following cDNAs encoding UGTs from Arabidopsis thaliana, Cannabis sativa and Helianthus annuus UGTs were cloned into pDONOR-zeo (as described in Example 1) and then recombined into the prokaryotic expression vector pDEST14: AtUGT73C6 (SEQ ID NO: 3), AtUGT88A1 (SEQ ID NO: 5), AtUGT71 D1 (SEQ ID NO: 7), AtUGT73B4 (SEQ ID NO: 9), AtUGT76C4 (SEQ ID NO: 11), AtUGT76E12 (SEQ ID NO: 13), and At5g49690 (SEQ ID NO: 17), CsUGT73C6 (SEQ ID NO: 15), HaUGT76G1L (SEQ ID NO: 1), and SrUGT76G1 (SEQ ID NO: 19). Host cells from the bacterial strain BL21 (DE3) were transformed individually pDEST14 vector.
A BL21 (DE3) single colony was inoculated in liquid media and incubated at 37° C. overnight. The bacterial cultures were diluted to a final 0.6 OD and CBDA was added to a final concentration of 0.1 mM. The cultures were split, and half was induced with 100 µM IPTG for 4h at 37° C. to express the UGTs and the other half was kept as controls without induction of UGT expression.
Subsequently, samples were treated with a 1:1 volume of acetonitrile for 15 minutes at 250 RPM. After 30 minutes centrifugation at 4,000 RPM, samples were diluted 1000-fold in the same solvent for further analysis.
CBDA depletion was assayed employing UHPLC-MS analysis. The instrument used was a Thermo Vanquish UHPLC connected to a Thermo TSQ Altis mass spectrometer. The UHPLC consists of a vacuum degasser, a ternary pump, a thermostated autosampler held at 5° C., and a thermostated column compartment. An Accucore C18 (150 × 2.2 mm, 2.6 µm, Thermo, USA) was used. The mobile phase is water with 0.1 % formic acid (A) and acetonitrile with 0.1 % formic acid (B) on a linear gradient (see Table 5). The flow rate was set at 0.800 mL/min. The column temperature was set at 30° C. The sample injection volume was 1 µL.
MS analyses were carried out in order to ensure the identity of the peaks and were performed on a Thermo TSQ Altis triple quadrupole mass spectrometer using electrospray ionization in negative mode. Compounds were analyzed using selected reaction monitoring using two ion pairs for quantitation and confirmation respectively.

[4] = 20 h growth, detected in PELLET, 0.05 mM hexanoic acid
[5] = 20 h growth, detected in PELLET
[6] = 20 h growth, detected in SUPERNATANT, 0.2 mM hexanoic acid
[7] = 20 h growth, detected in SUPERNATANT

Molecule | solubility in water [1] | CBDA-glc [2, 4] | CBGA-glc [2, 4] | OLA-glc [2, 4] | CBD-glc [2, 5] | OLA-glc [2, 6] | CBD-glc [2, 7] | production of glycosylated cannabinoids or cannabinoid precursor compounds [2] | decrease in CBDA content [3] | CBGA-(glc)2 [2, 4] | CBGA-glucuronic acid [2, 4] | OLA-(glc)2 [2, 4] | CBD-(glc)2 [2, 5] | CBGA-(glc)2 [2, 6] | CBGA-glc [2, 6] | CBD-(glc)2 [2, 7]
CCCCCc1cc(O)c2c(c1)OC(C)(C)C1CCC(C)=CC21 (centres unmarked) [Δ^9-THC, Δ^9-tetrahydrocannabinol] | less than 0.01 mg/ml |  |  |  |  |  |  |  |  |  |  |  |  |  |  | 
B1 |  | ++ | + | ++ | +++ | ++ | +++ | detected | 9% |  |  |  |  |  |  | 
B2 |  |  |  |  |  |  |  | No production | 21% |  |  |  |  |  |  | 
B3 |  | + |  |  |  |  |  | detected | 9% |  |  |  |  |  |  | 
B4 |  | +++ | ++++ | +++ | +++ | +++ | +++ | detected | 12% | ++ | ++ | ++ | ++ | + | + | ++
